From patent US10465005B2, “JAML specific binding agents, antibodies, and uses related thereto” (Emory University, priority 2011, dated 2019)

How the values were obtained:
[1] = target: T1, epithelial CAR on T84 monolayers (Homo sapiens, UniProt P78310); test: Soluble JAML binding to epithelial CAR, immunofluorescence; format: cell-based; details: sJAML 20 μg/ml, 1 h at 37° C. after 20 min Ca2+ free buffer; FIG. 7D
T1 construct: endogenous in cells; host or cells: T84
T1 sequence (P78310 20-365): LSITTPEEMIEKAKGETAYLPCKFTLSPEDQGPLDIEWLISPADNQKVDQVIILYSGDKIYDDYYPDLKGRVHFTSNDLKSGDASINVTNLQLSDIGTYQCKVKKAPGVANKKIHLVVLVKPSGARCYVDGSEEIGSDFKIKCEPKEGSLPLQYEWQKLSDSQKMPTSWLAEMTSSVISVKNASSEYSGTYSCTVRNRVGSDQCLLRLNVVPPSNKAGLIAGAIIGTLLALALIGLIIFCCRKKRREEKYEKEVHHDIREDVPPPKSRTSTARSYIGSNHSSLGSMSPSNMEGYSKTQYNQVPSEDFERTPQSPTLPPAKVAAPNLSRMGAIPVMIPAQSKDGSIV
Experimental: FIG. 7D. T84 monolayers were subjected to transient calcium depletion by preincubation in Ca^2+ free buffer (PBS) for 20 min to increase access to tight junctions, were incubated with sJAML (20 μg/ml) for 1 h at 37° C. […] The scale bar is 20 μm.
As it has been established that epithelial CAR is the ligand for JAML on PMN. Whether shed JAML, as well as the recombinant protein could bind to CAR was investigated. To do this, CHO cells stably expressing CAR protein (CHO-CAR) were incubated with either supernatants from PMA activated differentiated PLB-985 (that release high levels of soluble JAML upon activation, (FIG. 2)), or recombinant soluble JAML and stained with DW216 to detect bound JAML. […] The same observation was verified by IF (FIG. 7B). […] The calcium depletion disrupts intercellular junctions of the epithelium and allows for better penetration of soluble JAML.

[2] = target: T2, CHO-JAML-His and CHO JAML-6xMyc (Homo sapiens, UniProt Q86YT9); test: FACS staining of stably transfected CHO-JAML cell lines; format: binding; details: FIG. 1A
T2 construct: 6xMyc (cell line CHO JAML-6xMyc); expressed in transfected cells
T2 sequence (Q86YT9 20-394): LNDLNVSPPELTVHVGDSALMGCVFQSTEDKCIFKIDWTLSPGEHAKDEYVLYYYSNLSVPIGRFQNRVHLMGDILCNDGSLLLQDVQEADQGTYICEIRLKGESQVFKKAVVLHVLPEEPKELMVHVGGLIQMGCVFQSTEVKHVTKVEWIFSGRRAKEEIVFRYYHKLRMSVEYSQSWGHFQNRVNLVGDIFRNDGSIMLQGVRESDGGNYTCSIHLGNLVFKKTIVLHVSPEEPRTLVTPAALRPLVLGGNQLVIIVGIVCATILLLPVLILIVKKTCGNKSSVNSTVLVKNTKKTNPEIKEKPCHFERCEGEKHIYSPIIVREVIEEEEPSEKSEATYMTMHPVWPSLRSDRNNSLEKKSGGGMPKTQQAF
Source text: BALB/c mice were immunized with recombinant soluble fragment of JAML.D1D2 tagged with 10 His residues at the C-terminus (sJAML-His), generated in H293T cells and purified by Nickel chromatography. After the 4th boost, mice were given a final immunization and, 3 days later, spleen cells harvested and fused to the myeloma cell line P3U1. Hybridomas were selected in HAT medium and supernatants of clones were subjected to screening first to immobilized, soluble JAML and followed by staining of CHO-JAML stable transfectants. Three hybridomas were selected and antibodies were purified from ascites. FACS staining profiles of mAbs using two different, stably transfected CHO-JAML cell lines, CHO-JAML-His and CHO JAML-6xMyc, both membrane bound and tagged at the C-terminus with either 10-His or 6xMyc. Control antibody is 9E10 anti Myc.
These hybridomas were further tested for reactivity against tagged, full-length JAML expressed on the surface of cultured cells. CHO-JAML-6XMyc transfectants were aliquoted and pelleted into round bottom 96 well plates. 100 μl hybridoma supernatants were added for 1 hr at 4° C. Cells were washed and positive wells were identified by FACS analysis using Goat anti Mouse-AlexaFluor 488. Cells from positive wells were cloned by limiting dilution at one cell per well and expanded first in DMEM-10% FBS containing HAT then in medium containing HT (ATCC) and later DMEM, 10% FBS. The cloned cells of interest were sent to Harlan Laboratories (Indianapolis, Ind.) for production of ascites. Antibodies were purified from ascitic fluid using proteinA-Sepharose (GE Healthcare) followed by dialysis against PBS. Aliquots were frozen at −80° C. Ig subclass of each antibody was determined by using the IsoStrip Mouse Monoclonal Antibody Isotyping Kit (Roche Applied Science). […]
Cells suspensions of adherent cells were prepared by trypsinization with Trypsin-EDTA (Sigma). […] After final washes, cells were analyzed using FACS Calibur. […] All samples were stained for JAML (DW100 mAb) and CD11b/CD18 (CBRM 1/29), and only CD11b/CD18 positive cells (PMNs) were analyzed for JAML expression.

B1: sJAML: recombinant soluble fragment of JAML.D1D2 tagged with 10 His residues at the C-terminus (protein)
chain: LNDLNVSPPELTVHVGDSALMGCVFQSTEDKCIFKIDWTLSPGEHAKDEYVLYYYSNLSVPIGRFQNRVHLMGDILCNDGSLLLQDVQEADQGTYICEIRLKGESQVFKKAVVLHVLPEEPKELMVHVGGLIQMGCVFQSTEVKHVTKVEWIFSGRRAKEEIVFRYYHKLRMSVEYSQSWGHFQNRVNLVGDIFRNDGSIMLQGVRESDGGNYTCSIHLGNLVFKKTIVLHVSPEEPRTL
With B1 the “JAML labeling versus CAR staining on T84 monolayers” value [1] was “highly colocalizes with staining of CAR”.

B2: DW100: monoclonal anti-human JAML antibody (IgG1,κ), hybridoma ATCC PTA-13051; VH SEQ ID NO:19, VL SEQ ID NO:22 (antibody, V domains shown)
VH: DVQLVESGAELVRPGASKLSCKALAYTFTDYEMHWVKQTPVHGLEWIGIIHPGSGGTVYNQKFKGKATLTADKSSSTAYMELSSLTSEDSTVYYCTRRRYYGSSYNWYFDVWGAGN
VL: VLTQSPASLAASVGETVTITCRASENIYYSLAWYQQKQGKSPQLLIYNANSLEDGVPSRFSGSGSGTQYSLKINSMQPEDTATYFCEQTYDVPLTFGAGTKLEL
In the case of B2, the “FACS staining of CHO-JAML transfectant lines” value [2] is reported as “stained both transfectant lines equally well”.
